The nanobody polyreactivity screen of Harvey et al. (2022)

Experiment: yeast display, Sf9 membrane polyspecificity reagent, FACS + sequencing; frameworks hold sequencing errors
Method in brief: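 Using colony PCR, genes from sorted yeast display clones were amplified, then sequenced on MiSeq at 2 × 250 and filtered by CDR length. The clones had been stained with 10% biotinylated, detergent-solubilized Sf9 membrane reagent for 1 hour at 4 °C and sorted by FACS into low and high (top ~1%) gates on anti-HA and streptavidin fluorescence. Polyreactivity labels come from the gate of origin.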

QVQLVESGGGLVQAGGSLRLSCAASGFNFSSYAMGWSRQAPGKERELVAAISGSGGTTYYADSVKGRFTISRDNAKNTVYLQMNSQKPEDTAVYYCATRLGLVITKYGYDYWGQGTQVTVSS
polyreactivity (PSR sort gate): high polyreactivity

QVQLVESGGGLVQAGGSLRLSCAASGRIFTIYAMGWYRQAPGKERELVAAITRGGNTNYADSVKGRFTISRDNAKNTVYLQMNSLKPEDTAVYDGAVGSRSWPYDYWGQGSQVTVSS
polyreactivity (PSR sort gate): high polyreactivity

QVQLVESGGGLVQAGGSLRLSCPASGRTFYKYAMGWYRQAPGKEREFVADISSRGGSTYYADSVKGRFTISRDNAKNTVYLQMNSLKPEDTAVYYCAKRDRAAARAYYYWGQGTQVTVSS
polyreactivity (PSR sort gate): high polyreactivity

QVQLVESGGGLLQAGGSLRLSCAASGITLSYYVMGWYRQAPGKERELVAAINQSGSRTYYADSVKGRFTISRDNPKNSVYLQMNSLKPEDTAVYYCAGVFSYQPTSGYGYWGQGTQVTVSS
polyreactivity (PSR sort gate): high polyreactivity

QVQLVESGGGLVQAGGSHRLSCAASGITLGRYAMGWYRQAPGKEREFVAAISSWSGGSTTYADSVKGRFTISRDNAKNTVYLQMNSLKPEDTAVYYWNARRYYGRYYLGHSDYDYWGQGTQVTVSS
polyreactivity (PSR sort gate): high polyreactivity

QVQLVESGGGLVQAGGSLRLSCAASGSIFEPYAMGWYRTAPGKERELVAAISSGGSTNYADSVKGRFTISRDNAKNTVYLQMNSLKPEVTAVYYCAAAYYTVGWLYYDYWYPFAYYYWGQGTQVTVSS
polyreactivity (PSR sort gate): low polyreactivity

QVQLVESGGGLVQAGGSLRLSCPASGSIFRGYGMGWSRQAPGKERELVAAMSSSGGTYYADSVKGRFTISRDNAKKTVYLQMNSLKPEDTAVYYCNARVRTQQRWVDYWGQGTQVTVSS
polyreactivity (PSR sort gate): high polyreactivity

QVQHVESGGGLVQAGGSLRLSCAASGSIISYYAMGWSRQQPGKERELVAAITANGGSTSYADSVKGRFTISRDNAKNTVYLQMNSLKPEVTAVYYCAKESDYPYYVSTKGDYDYWGQGTQVTVSS
polyreactivity (PSR sort gate): low polyreactivity

QVQLVESGGRLVQAGGSLRLSCAASGFTYQGNAMGWYRQAPGKERVLVAAISRGGSTYYADSVKGRFTISRDNAKNTVYLQMNRLKPEDTAVYYGAAKPSVDLDYWGQGTQVTVSS
polyreactivity (PSR sort gate): high polyreactivity

QVQLVESGGGLVQAGGSLRLSCAASGSTFYVYAMGWYRQAPGKERELVAAITSGSSTYADSVKGRFTISRDNAKNTVYLQMNSLKPEDTAVFYCNALSRTAWSYYLYPSTPFDYWGQGTQVTVSS
polyreactivity (PSR sort gate): low polyreactivity

QVQLVESGGGLVQAGGSLRLSCAASGIIFDAYGMGWYRQAPGKEMELVAAINTVGSTNYADSVKGRFTISRDNAKNTVYLQMNSLKPEDTAVYYCAADSYFYDPYDYWGQGTQVTVSS
polyreactivity (PSR sort gate): low polyreactivity

QVQLVESGGGLVQAGGSLRLSCAASGRTLGHNAMGWYRQAPGKERELVAAITSRGGTTYADSVKGRFTISRDNAKNTVYLQMNSLKPEDTAVYYCAARGYAYSRYYYWGQGTQVTVSS
polyreactivity (PSR sort gate): high polyreactivity

QVQLVESGGGLVKAGGSLRLSCAASGRIFSRNAMGWYRQAPGKERELVAAITRRGGNTYYADSVKGRFTISRDNAKNTVYLQMNSLKPEDTAVYYCATRRYYQRWSPGYDYWGQGTQVTVSS
polyreactivity (PSR sort gate): high polyreactivity

QVQLVESGGGLVQAGGSLRLSCAASGRIFTWNAMGWYRQAPGKERELVASISRSGTSTYYADSVKGRFTISRDNAKNSVYLQMNSLKAEDTAVYYCAAKRYGYKMYYWGQGTQVTVSS
polyreactivity (PSR sort gate): high polyreactivity

QVQLVESGGGLFQAGGSLRLSCAASGSTLVGNAMGWYRQAPGKERELVATISSSGGSTYYADSVKGRFTISRDNAKNTVYLQMNSLKPEDTGVYYCAARIQWPTWSLYYYWGQGTQVTVSS
polyreactivity (PSR sort gate): high polyreactivity

QVQLVESGGGLDQAGGSLRLTCAASGSIFAKYAMGWYRQAPGKERELVAAITSSGDSTNYADSVKGRFTISRDNAKNTVYVQMNSLKPEDTAVYYCAADHHYGYVYYAFWGYDYWGQGTQVTVSS
polyreactivity (PSR sort gate): low polyreactivity

QVQLVESGGGLVQAGGSLRLSCAASGGTFYVNDMGWYRQAPGKERELVATITYSGTSTYYADSVKGRFTISRDNAKNTVYLQMNSLKAEDTAVYYCATDVLLYFEPVNLDYWGQGTQVTVSS
polyreactivity (PSR sort gate): low polyreactivity

QVQLVDSGGGLVQAGGSLRLSCAASGRTFTWYAMGWYRQAPGKERELVSAITNGGRTYADSVKGRFTISRDNAKNTVYLQMNSLKPEDTAVYYCAKVQYRGYLPHQRGRERDYDYWGQGTQVTVSS
polyreactivity (PSR sort gate): low polyreactivity

QVQLVESVGGLVQAGGSLRLSCAGSGFTCGAYAMGWSRQAPRKERELVAAINTRGGSRYYADSVKGRFTISRDNAKNTVYLQMNSLKPEDTAVYYCAASVYFWYDYWGQGTQVTVSS
polyreactivity (PSR sort gate): high polyreactivity

QVQLVESGGGLVQAGGSLRLSCAASGSIFSWYAMGWYRQAPGKEWELVAAITWSGGSTYYADSVKGRFTISRDNAKKTVYLQMNSLKPEDTAVYYCAASYDIYGNYRRYDYWGQGTQVTVSS
polyreactivity (PSR sort gate): high polyreactivity

QVQLVESGGGLVQAGGSLRLSCAASGNIFVFYVMGWYRQAPGKERELVASISSTGNTYYADSVKGRFTISRENAMNTVYLQLNRLKPEDTAVYYCAADSHQNVSGWLRWPRMDYWGQGTQVTVSA
polyreactivity (PSR sort gate): low polyreactivity

QVQLVESGGGLVQAGGSLRLSCAASGYIIFTNAMGWYRQAPGKERQLVAAISTIDGSTYYADSVKGRFTISRDNAKNTVYLQMNSLKPEDTAVYYCATDTPFISSLAYDYWGQGTQVTVSS
polyreactivity (PSR sort gate): low polyreactivity

QVQLVESGGGLVQAGGSLRLSCAASGGTFYYYAMGWYRQPPGKERELGAAITGTGGRTYYADSVKGRFTISRDNAKNTVSLQMNSLKPEDTAVYYCATDALYGSGYDYWGQGTQVTVSS
polyreactivity (PSR sort gate): high polyreactivity

QVQLVESAAGLVQAGASLRLSCAASGRTSTQNAMGWYRQAPGKERELVAAITTGGGSTYYADSVKGRFTISRDNAKYTVYLQMNSLKPEDTAVYYCAARTPQRSEWTQYGYWGQGTQVTVSS
polyreactivity (PSR sort gate): low polyreactivity

QVQLVESGGGLDQARGSLRLSCAASGGIFDHNAMGWYRQAPGKEREFVAAITWSGGGTYYADSVKGRFTISRDNAKNTVYLQMNSLKPEDTAVYYCAATVYGIYYYGKDRYDYWGQGTQVTVSS
polyreactivity (PSR sort gate): low polyreactivity

QVQLVESGGGLVQAGGSLRLSSAASGSIFLKNAMGRSRQAPGKERELVARISFSGGSTYYADSVKGRFTISRDNAQNTVYLQMNSLKPEDTAVYYCAKTVLRTESGWWIKFDYWGQGTQVTVSS
polyreactivity (PSR sort gate): low polyreactivity

QVQLVESGGGLVQAGGSLRLSCAASGITFTVNAMGWYRQAPGKERELVAAISNDGSTYYADSVKGRFTISRDNAKNTVYLQMNSLKPEDTAVYYCSADTWDDFGPYGYDYWGQGTQVTVSS
polyreactivity (PSR sort gate): low polyreactivity

QVQLVESGGGVVQAGGSLRLSCAASGINFGRNTMGWYRQAPGKERELVAAIDSGGNTYADSVKGRFTISRDNAKNTVYLQMNSLKPEDTAVYYCAVDGGEFSSYGYWGQGTQVTVSS
polyreactivity (PSR sort gate): low polyreactivity

QVQLVESGGGLVQAGGSLRLSCAASGTFSNYAMGWYRQAPGKERELVAGISKRGGSTYYADSVKGRFTISRDNAKNTVYLQMNSLKPEDTAVYYCRVYAYDYWGQGTQVTVSS
polyreactivity (PSR sort gate): low polyreactivity

QVQLVESGGGLVQAGGSLRLSCAASGRNFPSYAMGWYRQAPGKERELVAAISFSGASTYYADSVKGRFTFSRDNAKNTVYLQMNSLKPEDTAVYYCNASGVGADVQWSWEEGDYWGQGTQVTVSS
polyreactivity (PSR sort gate): low polyreactivity

QVQLVESGGGLVQAGGSLRLSCAASGSIFSGYVMGWYRQAPGKERELVAAIDNSSGSTYYADSVKGRFTISRDNAKNTVYLQMNSLKPEDTAVYYCAADYYSKAYSEYDYWGQGTQVTVSS
polyreactivity (PSR sort gate): low polyreactivity

QVQLVESGGGLVQAGGSLRLSCAASGFIIVRYAMGWYRQAPGKERELVASITKSGGSTYYADSVKGRFTISRDNAKNTVYLQMNSLKPEDTAVYYCAATVVSRTRYYYRGQRYDYWGQGTQVTVSS
polyreactivity (PSR sort gate): high polyreactivity

QVQLVESGGGLVQAGGSLRLSCAASGRFFSWNAMGWYRPAPGTERELVAAISSSVGSTYYADSVKGRFTISRDNAQNTVYFQMNSRKPEDTAVYYCNAVPIGQWAYDYWGQGTQVTVSS
polyreactivity (PSR sort gate): high polyreactivity

QVQLVESGGGLVQAGGSLRLSCAASGRIFIRNAMGWYRQAPGTERELVAAITSDGITYYADSVKGRFTISRDNATNTVYLQMNSLKPEDTAVYYCAKVGGWFSNLFIPRYREYNYWGQGTQVTVSP
polyreactivity (PSR sort gate): low polyreactivity

QVQLVESGGGLVQAGGSLRLSCAASGRIFYSNDLGWYRQAPGKERELVAAITSSGASTYYADSVKGRFTISRDNEKNTVYLQMNSLKPEDTAVYYCNVDIGVYAYESDYWGQGTQVTVSS
polyreactivity (PSR sort gate): low polyreactivity

QVQLVESGGGLVQAGGSLRLSCAASGRIFATNAMGWYRQAPGKERELVATITRSAGRTYYADSVKGRFTISRDNAKYTVYLQMNSLKPEDTAVYYCAASYWDTEPGYREYDYWGQGSQVTVSS
polyreactivity (PSR sort gate): low polyreactivity

QVQLVESGGGLVQAGGSLRLSCAASGRIFPRYAMGWYRQAPGKERELVAAITSSGTSTYYADSVKGRFTISRDNAKNTVYLQMNSLKPEDTAVYYCNAVKYARWGYDYWGQGTQVTVSS
polyreactivity (PSR sort gate): high polyreactivity

QVQLVDSVGGLVQAGGSLRLSCAASGRTFSNYAMGWYRQAPGKERQLVAAISGTGDNTYYADSVKGRFTISRDNAKNTVYLQMNSLKPEDTAVYYCKTVYYGWPRRYGYWGQGTQVTVSS
polyreactivity (PSR sort gate): high polyreactivity

QVQLVESGGGLVQAGGRLRISCAASGRTFGHYAMGWYRQAPGKQRELVAAINRSGGITYYADSVRGRFTISRDNAKNTVYLQMNSLKPEDPAVDYCAAASPGRYDYWGQGTQETVSS
polyreactivity (PSR sort gate): high polyreactivity

QVQLVESGGGLVQAGGSLRLSCAASGLTFQLYTMGWYRQAPGKERELVAAISRSGTRTYYADSVKGRFTISRDNAQNTVYLQMNSLKPEDTAVYYCAARTDGYRNNYWGQATQVTVSS
polyreactivity (PSR sort gate): high polyreactivity

QVQLVETGGGLVQARGSLRLSCAASVSILYGNAMGWYRQAPGKERELVAAISRGGSTYYADSVKGRFTISRDNAKNTVYLQMNSLKPEDTAVYYCNALYTSYYRPSGMGYWGQGTQVTVSS
polyreactivity (PSR sort gate): high polyreactivity

QVQLVESGGGLVQAGGSLRLSCAASGFIFSNNAMGWYRQAPGKERELVAVINGGGSTYYADSVKGRFTISRDNAKNTVYLQMNSLKPEDTAVYYCARKSWPKERRVDPGYDYWGQGTQVTVSS
polyreactivity (PSR sort gate): low polyreactivity

QVQLVESGGGLVQAGGSLRLSCAASGRTFLYYAMGWYRQAPGKERELVAAIRRGSSTYYADSVKGRFTISRDNAKNTVYLQMNSLKPEDTAVYYCAARGRYRIGPGRYGKRYDYWGQGTQVTVSS
polyreactivity (PSR sort gate): high polyreactivity
